The series concerns the molecule itself. The series is described as follows: cross-linking.

B1: furin-HA (mouse furin tagged with the HA epitope), expressed stably in RBL cells (enzyme, UniProt P23188 108-793, looked up)
chain: DVYQEPTDPKFPQQWYLSGVTQRDLNVKEAWAQGFTGHGIVVSILDDGIEKNHPDLAGNYDPGASFDVNDQDPDPQPRYTQMNDNRHGTRCAGEVAAVANNGVCGVGVAYNARIGGVRMLDGEVTDAVEARSLGLNPNHIHIYSASWGPEDDGKTVDGPARLAEEAFFRGVSQGRGGLGSIFVWASGNGGREHDSCNCDGYTNSIYTLSISSATQFGNVPWYSEACSSTLATTYSSGNQNEKQIVTTDLRQKCTESHTGTSASAPLAAGIIALTLEANKNLTWRDMQHLVVQTSKPAHLNADDWATNGVGRKVSHSYGYGLLDAGAMVALAQNWTTVAPQRKCIVEILVEPKDIGKRLEVRKAVTACLGEPNHITRLEHVQARLTLSYNRRGDLAIHLISPMGTRSTLLAARPHDYSADGFNDWAFMTTHSWDEDPAGEWVLEIENTSEANNYGTLTKFTLVLYGTAPEGLSTPPESSGCKTLTSSQACVVCEEGYSLHQKSCVQHCPPGFIPQVLDTHYSTENDVEIIRASVCTPCHASCATCQGPAPTDCLSCPSHASLDPVEQTCSRQSQSSRESRPQQQPPALRPEVEMEPRLQAGLASHLPEVLAGLSCLIIVLIFGIVFLFLHRCSGFSFRGVKVYTMDRGLISYKGLPPEAWQEECPSDSEEDEGRGERTAFIKDQSAL
In general, stoichiometry N refers to a count of units in the complex or per binding partner. Take B1: the “stoichiometry N” value is 2.

B2: furin-FLAG (mouse furin tagged with the FLAG epitope), expressed stably in RBL cells (enzyme)
chain: B1 chain
As to B2, the “stoichiometry N” value amounted to 2.
